These results are taken from patent US20130302399A1 (ALDERBIO, published 2013).

First the molecules themselves.
B1: Ab21 (antibody, human IgG1, kappa, N297A, V domains shown)
VH: QSVEESGGRLVTPGTPLTLTCTVSGFSLSSYAMNWVRQAPGKGLEWIGAIRSSGATFFASWVNGRFTISKTSTTVDLKITSPTPEDTATYFCARDTNDGWYINRLDLWGPGTLVTVSS
VL: AAVLTQTPSPVSAAVGGTVSISCQSSKSVYSNYLSWFQQKPGQPPKFLIYKASTLASGVPSRFKGSGSGTQFTLTISDVQCDDAATYYCAGGDTNISDNAFGGGTEVVVKR
notes: also called antibody Ab21
B2: Ab22 (antibody, human IgG1, kappa, N297A, V domains shown)
VH: EVQLVESGGGLVQPGGSLRLSCAASGFSLSSYAMNWVRQAPGKGLEWIGAIRSSGATFFASSVNGRFTISRDNSKNTVYLQMNSLRAEDTAVYYCARDTNDGWYINRLDLWGQGTLVTVSS
VL: AVLTQSPSTLSASVGDRVTITCQSSKSVYSNYLSWFQQKPGKAPKFLIYKASTLASGVPSRFSGSGSGTEFTLTISSLQPDDFATYYCAGGDTNIADNAFGGGTKVEIKR
notes: also called antibody Ab22
B3: Ab23 (antibody, human IgG1, kappa, N297A, V domains shown)
VH: QSLEESGGDLVKPGASLTLTCKASGFSFSSGYYMCWVRQAPGKGLEWIACIYAGSGGSTFFANWAKGRFTISKTSSTTVTLQMTSLTAADTATYFCARDGGYAGYGYAFFNLWGPGTLVTVSS
VL: DVVMTQTPASVSEPVGGTVTIKCQASERIYSGLAWYQQKPGQPPKLLIYGASTLASGVPSRFKGSGSGTDFTLTISDLECDDAAIYYCQCTYYGSSYPNVFGGGTEVVVKR
notes: also called antibody Ab23
B4: Ab24 (antibody, human IgG1, kappa, N297A, V domains shown)
VH: QSLEESGGDLVKPGASLTLTCKASGFSFSSGYYMCWVRQAPGKGLEWIACIYAGSGGSTFFANWAKGRFTISKTSSTTVTLQMTSLTAADTATYFCARDGGYAGYGYAFFNLWGPGTLVTVSS
VL: DVVMTQTPASVSEPVGGTVTIKCQASERIYSGLAWYQQKPGQPPKLLIYGASTLASGVPSRFKGSGSGTDFTLTISDLECDDAAIYYCQATYYGSSYPNVFGGGTEVVVKR
notes: also called antibody Ab24

In general, Kd refers to the free concentration of one partner at which half of the binding sites on the other are occupied at equilibrium, for simple one-to-one binding. High values mean weaker binding, low ones tighter binding. A word on the koff: it is a measure of how fast the partners let go of each other. High values mean fast dissociation, low ones slow dissociation. By kon is commonly meant the second-order rate constant of association. Lower therefore signals slow association.

T1 sequence (Q8NBP7 31-692 limits assumed): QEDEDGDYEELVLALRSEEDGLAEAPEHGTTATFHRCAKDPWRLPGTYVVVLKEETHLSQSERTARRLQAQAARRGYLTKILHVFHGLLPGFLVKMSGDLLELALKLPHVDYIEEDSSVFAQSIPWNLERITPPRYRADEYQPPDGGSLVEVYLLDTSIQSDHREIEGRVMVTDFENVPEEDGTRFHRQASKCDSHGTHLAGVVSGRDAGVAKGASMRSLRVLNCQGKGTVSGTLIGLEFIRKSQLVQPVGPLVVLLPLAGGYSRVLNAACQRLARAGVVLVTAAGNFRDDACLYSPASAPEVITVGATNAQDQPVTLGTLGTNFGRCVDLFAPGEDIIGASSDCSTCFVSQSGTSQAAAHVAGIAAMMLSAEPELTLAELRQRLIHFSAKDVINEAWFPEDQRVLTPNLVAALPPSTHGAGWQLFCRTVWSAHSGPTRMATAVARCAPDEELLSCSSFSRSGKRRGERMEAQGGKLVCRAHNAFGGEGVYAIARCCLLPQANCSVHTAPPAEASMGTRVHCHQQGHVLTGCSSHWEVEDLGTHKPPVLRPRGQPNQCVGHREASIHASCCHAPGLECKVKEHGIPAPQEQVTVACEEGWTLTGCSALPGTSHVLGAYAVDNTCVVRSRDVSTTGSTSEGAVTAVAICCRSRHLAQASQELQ

This experiment concerns the target T1, human Proprotein Convertase Subtilisin-like/Kexin type 9 (human, UniProt Q8NBP7 31-692, limits assumed).
T1 construct: Biotinylated in the ELISAs; unlabelled analyte in BLI and SPR; also called human PCSK9; PCSK9
The experiment can be described thus: SPR (ProteOn XPR36), biotinylated antibody on neutravidin chip, human PCSK9 as analyte, 1:1 fit, mean of 4 densities. The procedure:
Binding affinities of monoclonal antibodies for PCSK9 were estimated using Surface Plasmon Resonance (SPR) on the ProteOn XPR36 (Bio-Rad). Biotinylated antibody was immobilized at progressively increasing densities to the surface of Neutravidin (NLC) Chips. A dilution series of human PCSK9 prepared in 1×HBS-EP+Buffer (10 mM Hepes; 150 mM NaCl; 3 mM EDTA, 0.05% Polysorbate 20; pH 7.6 at 25° C.) purchased from Thermo Scientific and supplemented with 0.2 mg/mL Bovine Serum Albumin (BSA) from Jackson ImmunoResearch and 0.005% sodium azide from VWR was used to query the antibodies. At our chosen concentrations of antigen (˜0.08 μg/mL-6.7 μg/mL) association times of 4 minutes and dissociation times of 30-120 minutes were used with the ProteOn Manager Software (v3.1.0.6, Bio-Rad) to group and fit data using a 1:1 Langmuir binding model. Surfaces were regenerated between analyte queries and after binding antibody to the surface using 10 mM Glycine pH 2.0. Data across 4 different densities were averaged and a single KD and standard propagation of error calculated for each antibody.
In turn, B1 displayed a Kd of 610 pM, a koff of 0.000354 s⁻¹ and a kon of 580000 M⁻¹ s⁻¹.

Take B2: binding was characterised by a dissociation constant (Kd) of 490 pM, the koff was 0.000259 s⁻¹ and the kon worked out at 529000 M⁻¹ s⁻¹.

As to B3, the Kd is 40 pM, the koff is 3.71e-05 s⁻¹ and the kon amounted to 928000 M⁻¹ s⁻¹.

For the molecule B4, the Kd is 90 pM, the koff is 6.16e-05 s⁻¹ and the kon was determined as 684000 M⁻¹ s⁻¹.
